T1: recombinant, soluble human ASGR-1 (human, UniProt P07306 62-291)
T1 construct: biotinylated in the binning assay; also called soluble huASGR-1; Soluble ASGR-1 (Amgen)
T1 sequence: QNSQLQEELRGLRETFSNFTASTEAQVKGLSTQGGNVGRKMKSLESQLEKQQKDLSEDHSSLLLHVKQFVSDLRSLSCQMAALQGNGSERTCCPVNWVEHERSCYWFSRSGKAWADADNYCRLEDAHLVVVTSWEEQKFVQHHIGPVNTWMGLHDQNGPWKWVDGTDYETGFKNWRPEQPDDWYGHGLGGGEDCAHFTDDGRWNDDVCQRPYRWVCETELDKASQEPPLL


Tests used:
[1] = molecular target: T1, recombinant, soluble human ASGR-1; experiment: Octet BLI dissociation, pH 5.6 plus calcium
How it was run: (§1)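 Antibodies were captured on anti-human Fc biosensors, and soluble ASGR-1 (6 ug/ml) was associated for 2 min in Tris buffer containing 1 mM CaCl2 at pH 7.4, followed by 10 min dissociation under each test condition. The signal at the end of association was set as 100%. Percent ASGR-1 still bound after 1 min of dissociation was compared with the pH 7.4 plus calcium control, and >10% extra dissociation was scored as sensitive.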

[2] = molecular target: T1, recombinant, soluble human ASGR-1; experiment: Octet BLI dissociation, pH 5.6 minus calcium
How it was run: as §1

[3] = molecular target: T1, recombinant, soluble human ASGR-1; experiment: Octet BLI dissociation, pH 7.4 minus calcium
How it was run: as §1

Row | Binder | % Change Compared to pH 7.4 + Calcium [1] | % Change Compared to pH 7.4 + Calcium [2] | % Change Compared to pH 7.4 + Calcium [3]
1 | 190F12 (antibody, V domains shown, hybridoma mAb) VH: QVQLVESGGGVVQPGRSLRLSCAASGFTFRNYGMHWVRQAPGKGLEWVAVIWFDGSNDYYADSVKGRFTISRDNSKNTLSLQMNSLRAEDTAVYYCARDRSVGYDGLDVWGQGTTVTVSS VL: DIQMTQSPSSLSASVGDRVTITCRASQGIGKYLAWFQQKPGKAPKSLIYAASSLQSGVPSKFSGSGSGTDFTLTISSLQPDDFATYYCQRYDTYPFTFGPGTKVDIK | -6% | -6% | -1%
2 | 74G6 (antibody, V domains shown, hybridoma mAb) VH: QVQLVESGGGVVQPGRSLRLSCAASGFTFSSYGMHWVRQAPGKGLEWVAVIWYDGSNKNYADSVKGRFTISRDNSKNTLYLQMNSLRAEDTAVYYCARDGSYGYDGLDYWGQGTLVTVSS VL: DIQMTQSPSSLSASVGDRVTITCRASQGIGKYLAWFQQKPGKAPKSLIYTTSSLQSGAPSKFSGSGSGTDFTLTISSLQYEDFATYYCQQYSNYPLTFGGGTKVEIN | -9% | -4% | 1%
3 | 192E4 (antibody, V domains shown, hybridoma mAb) VH: QVQLVESGGGVVQPGRSLRLSCAASGFTFSSYGMHWVRQAPGKGLEWVAVIWYDGSNKNYVDSVRGRFTISRDNSKNTLYLQMNSLRAEDTAVYYCARDRSVGYDGMDVWGQGTTVTVSS VL: DIQMTQSPSSLSASVGDRVTITCRASQGIGNYLAWFQQKPGKAPKSLIYVVSSLQSGVPSRFSGSGSGTDFTLTISSLQPEDFATYYCQRYDTYPFTFGPGTKVDIK | -9% | -8% | -2%
4 | 74C8 (antibody, V domains shown, hybridoma mAb) VH: QVQLVESGGGVVQPGRSLRLSCAASGFTFSSYGMHWVRQAPGKGLEWVAVIWYDGSNKNYADSVKGRFTISRDNSKNTLYLQMNSLRAEDTAVYYCARDGSYGYDGLDYWGQGTLVTVSS VL: DIQMTQSPSSLSASVGDRVTITCRASQGIGKYLAWFQQKPGKAPKSLIYTTSNLQSGAPSKFSGSGSGTDFTLTISSLQYEDFATYYCQQYSNYPLTFGGGTKVEIN | -7% | -3% | 1%
5 | 192C10 (antibody, V domains shown, hybridoma mAb) VH: QVQLVESGGGVVQPGRSLRLSCASSGFTFRNYGMHWVRQAPGKGLKWVAVIWFDGSNDYYADSVKGRFTISRDNSKNTLSLQMNSLRAEDTAVYYCARDRSVGYDGLDVWGQGTTVTVSS VL: DIQMTQSPSSLSASVGDRVTITCRASQGIGKYLAWFQQKPGKAPKSLIYAASSLQSGVPSKFSGSGSGTDFTLTISSLQPDDFATYYCQRYDTYPFTFGPGTKVDFK | -6% | -6% | -1%
6 | 190H9 (antibody, V domains shown, hybridoma mAb) VH: QVQLVESGGGVVQPGRSLRLSCAASGFTFRNYGMHWVRQAPGKGLEWVAVIWFDGSNDYYADSVKGRFTISRDNSKNTLSLQMNSLRAEDTAVYYCARDRSVGYDGLDVWGQGTTVTVSS VL: DIQMTQSPSSLSASVGDRVTITCRASQGIGKYLAWFQQKPGKALKSLIYAASSLQSGVPSKFSGSGSGTDFTLTISSLQPDDFATYYCQRYDTYPFTFGPGTKVDIK | -6% | -7% | -1%
7 | 75G3 (antibody, V domains shown, hybridoma mAb) VH: QVQLQQWGAGLLKPSETLSLTCAVYGGSLSGSYWSWIRQPPGKGLEWIGEINLSGSTNYNPSLKSRVTISVDTSKSQFSLTLRSVTAADTAVYYCARDYGGLDYWGQGTLVTVSS VL: EIVLTQSPGTLSLSPGERATLSCRARQNVDSSYLAWYQQKPGQAPRLLIYGASSRATGIPDRFSGSGSGTDFTLTISRLEPEDFAVFYCQQYERSPWTFGQGTKVEIK | -1% | 2% | -1%
8 | 74H7 (antibody, V domains shown, hybridoma mAb) VH: QVQLQQWGAGLLKPSEPLSLTCAVYGGSFSGPYWSWIRQPPGKGLEWIGEINHSGSTNYNPSLKSRVTISVDTSKNQFSLKLTSVTAADTAVYYCARDYGGLDVWGQGTTVTVSS VL: ELVLTQSPGTLSLSPGERATLSCRASQNIYSSYLAWYQQKPGQAPRLLIYGASSRATGIPDRFSGSGSGTDFTLTISRLEPEDFAVYCCQQYESSPWTFGQGTKVEIK | -2% | 1% | 1%

Second part, the binder after the results:

Row | % Change Compared to pH 7.4 + Calcium [1] | % Change Compared to pH 7.4 + Calcium [2] | % Change Compared to pH 7.4 + Calcium [3] | Binder
9 | -3% | -3% | 2% | 197G3 (antibody, V domains shown, hybridoma mAb) VH: QVQLVESGGGVVQPGRSLRLSCVASGFTFSSHGMHWVRQAPGKGLEWVAVIWYDGSNKNYADSVKGRFTISRDNSKNTLYLQMNSLRAEDTAVYYCARDPSVGYDGMDVWGQGTTVTVSS VL: DIQMTQSPSSLSASVGDRVTITCRASQGIGNHLAWFQQKPGKAPKSLIYAASSLQSGVPSKFSGSRSGTDFSLTISSLQPEDFATYYCQQYSNYPVTFGPGTKVDIK
10 | -7% | -3% | -1% | 213B3 (antibody, V domains shown, hybridoma mAb) VH: QVQLVESGGGVVQPGRSLRLSCAASGFTFSSYGMHWVRQAPGKGLEWVAVIWYDGSNKNYADSVKGRFTISRDNSKNTLYLQMNSLRAEDTAVYYCARDRTVGYDGFDIWGQGTMVTVSS VL: DIQMTQSPSSLSASVGDRVTITCRASQGIGKYLAWFQQKPGKAPKSLISAASSVLSGVPSKFSGSGSGTDFTLTISSLQPEDFATYYCQKYDTYPFTFGPGTKVDIK
11 | -3% | 1% | 2% | 219H1 (antibody, V domains shown, hybridoma mAb) VH: QVQLVESGGGVVQPGRSLRLSCAASGFTFSRYGMHWVRQAPGKGLEWVAVIWYDGSNKHYADSVKGRFTISRDNSKNTLYLQMNSLRGEDTAVYYCARDRGVGYNGMDVWGQGTTVTVSS VL: DIQMTQSPSSQSASVGDRVTITCRASQGISNYLDWFQQKPGKAPKSLIYSASNLQSGVPSKFSGSRSGTDFTLTISSLQPEDFATYYCQHYSNYPLTFGGGTKVEIK
12 | -4% | -4% | 1% | 194B7 (antibody, V domains shown, hybridoma mAb) VH: QVQLVESGGGVVQPGRSLRLSCAASGFTFSSYGMHWVRQAPGKGLEWVAVIWYDGSNKNYADSVKGRFTISRDNSKNTLYLQMNSLRAEDTAVYYCARDRSKGYDGMDVWGQGTTVTVSS VL: DIQMTQSPSSLSASVGDRVTITCRASQGISKYLAWFQQKPGKAPKSLIYGASRLQSGVPSKFSGSGSGTDFTLTISSLQPEDFATYYCQHYLNYPLTFGQGTRLEIK
13 | -5% | -4% | -1% | 197E11 (antibody, V domains shown, hybridoma mAb) VH: QVQLVESGGGVVQPGRSLRLSCAASGFTFRNYGMHWVRQAPGKGLEWVAVIWFDGSNDYYADSVKGRFTISRDNSKNTLSLQMNSLRAEDTAVYYCARDRSVGYDGLDVWGQGTTVTVSS VL: DIQMTQSPSSLSASVGDRVTITCRASQGINKYLSWFQQKPGKAPKSLIYAASSVQSGVPSKFSGSGSGTDFTLTISRLQPDDFATYYGQRYDTYPFTFGPGTKVDIK

Source: US20190248902A1 (published 2019)
